T1: MERS spike protein on recombinant CHO K1 cells (MERS-CoV, UniProt K9N5Q8 18-1353)
T1 sequence: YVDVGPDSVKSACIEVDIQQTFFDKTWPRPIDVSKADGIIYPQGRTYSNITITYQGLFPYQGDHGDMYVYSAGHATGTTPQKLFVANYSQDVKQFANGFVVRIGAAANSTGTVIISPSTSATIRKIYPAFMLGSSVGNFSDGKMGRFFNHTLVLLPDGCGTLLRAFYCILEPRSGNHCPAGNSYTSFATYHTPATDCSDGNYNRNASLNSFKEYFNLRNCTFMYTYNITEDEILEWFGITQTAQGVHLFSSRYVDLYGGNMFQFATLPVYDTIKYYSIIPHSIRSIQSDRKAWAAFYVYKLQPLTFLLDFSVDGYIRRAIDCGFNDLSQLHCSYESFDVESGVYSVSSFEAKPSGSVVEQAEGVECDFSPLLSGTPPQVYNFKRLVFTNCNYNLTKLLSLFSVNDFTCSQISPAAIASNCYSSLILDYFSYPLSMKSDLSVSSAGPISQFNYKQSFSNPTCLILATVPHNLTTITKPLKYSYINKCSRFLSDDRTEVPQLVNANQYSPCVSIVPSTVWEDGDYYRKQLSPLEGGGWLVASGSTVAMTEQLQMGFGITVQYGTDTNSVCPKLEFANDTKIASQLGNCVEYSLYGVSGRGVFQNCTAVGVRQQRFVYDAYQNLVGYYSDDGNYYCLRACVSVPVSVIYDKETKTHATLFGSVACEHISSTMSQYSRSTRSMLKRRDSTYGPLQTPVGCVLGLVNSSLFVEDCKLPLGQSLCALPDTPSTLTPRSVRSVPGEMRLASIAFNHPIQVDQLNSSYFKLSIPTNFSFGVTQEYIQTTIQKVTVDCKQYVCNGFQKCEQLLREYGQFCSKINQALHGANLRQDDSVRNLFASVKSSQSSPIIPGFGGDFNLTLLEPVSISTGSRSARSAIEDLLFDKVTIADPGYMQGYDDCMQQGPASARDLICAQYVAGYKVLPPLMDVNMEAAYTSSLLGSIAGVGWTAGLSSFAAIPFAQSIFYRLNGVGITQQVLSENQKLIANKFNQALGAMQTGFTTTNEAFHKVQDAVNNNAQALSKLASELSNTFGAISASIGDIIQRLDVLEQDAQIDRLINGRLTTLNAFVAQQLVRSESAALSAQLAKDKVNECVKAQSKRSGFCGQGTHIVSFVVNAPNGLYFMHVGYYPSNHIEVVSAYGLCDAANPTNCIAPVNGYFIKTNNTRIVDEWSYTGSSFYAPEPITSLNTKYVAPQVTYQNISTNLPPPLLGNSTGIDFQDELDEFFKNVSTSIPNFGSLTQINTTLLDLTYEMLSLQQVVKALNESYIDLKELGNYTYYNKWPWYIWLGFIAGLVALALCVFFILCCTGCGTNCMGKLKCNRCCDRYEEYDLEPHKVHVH

T2: OC43 spike protein (human coronavirus OC43, UniProt P36334 14-1278)
T2 sequence: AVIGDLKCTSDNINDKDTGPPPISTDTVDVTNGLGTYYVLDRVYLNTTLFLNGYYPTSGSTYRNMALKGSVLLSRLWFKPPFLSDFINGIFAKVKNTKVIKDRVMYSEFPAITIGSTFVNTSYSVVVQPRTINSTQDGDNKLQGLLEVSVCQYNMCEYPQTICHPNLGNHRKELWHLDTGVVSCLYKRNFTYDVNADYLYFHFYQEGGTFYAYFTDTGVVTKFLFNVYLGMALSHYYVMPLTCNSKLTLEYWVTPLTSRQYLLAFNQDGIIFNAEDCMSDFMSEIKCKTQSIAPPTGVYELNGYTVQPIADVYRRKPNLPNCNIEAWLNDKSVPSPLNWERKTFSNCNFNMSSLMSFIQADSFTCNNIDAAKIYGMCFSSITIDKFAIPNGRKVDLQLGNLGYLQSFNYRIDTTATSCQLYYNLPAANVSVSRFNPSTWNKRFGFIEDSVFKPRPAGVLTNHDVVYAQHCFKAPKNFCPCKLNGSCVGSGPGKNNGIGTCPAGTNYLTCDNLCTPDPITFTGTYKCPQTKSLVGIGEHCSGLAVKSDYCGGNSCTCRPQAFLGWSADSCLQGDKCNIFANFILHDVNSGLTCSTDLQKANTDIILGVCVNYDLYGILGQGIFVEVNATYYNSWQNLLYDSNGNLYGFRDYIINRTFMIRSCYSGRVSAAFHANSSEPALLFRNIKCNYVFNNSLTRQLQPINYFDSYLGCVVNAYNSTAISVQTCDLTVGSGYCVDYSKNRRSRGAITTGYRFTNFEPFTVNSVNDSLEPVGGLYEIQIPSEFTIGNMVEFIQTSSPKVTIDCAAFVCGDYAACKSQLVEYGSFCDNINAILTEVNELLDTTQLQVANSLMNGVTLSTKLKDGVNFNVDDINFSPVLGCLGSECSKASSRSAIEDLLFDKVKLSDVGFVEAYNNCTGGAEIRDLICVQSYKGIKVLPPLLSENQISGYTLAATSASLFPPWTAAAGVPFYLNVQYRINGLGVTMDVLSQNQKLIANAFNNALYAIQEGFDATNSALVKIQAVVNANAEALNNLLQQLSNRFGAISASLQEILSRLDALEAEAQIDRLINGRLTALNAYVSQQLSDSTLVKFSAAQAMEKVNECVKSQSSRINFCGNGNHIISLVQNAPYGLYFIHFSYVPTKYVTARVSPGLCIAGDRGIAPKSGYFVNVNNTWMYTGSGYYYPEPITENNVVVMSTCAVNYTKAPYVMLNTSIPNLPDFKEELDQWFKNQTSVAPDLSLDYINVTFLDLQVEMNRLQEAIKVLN


Legend:
[1] = target: spike protein of authentic SARS-CoV/Urbani virus (SARS-CoV, UniProt P59594 14-1255); test: cell-based or functional assay
[2] = target: spike protein of authentic SARS-CoV-2 virus (SARS-CoV-2, UniProt P0DTC2 14-1273); test: cell-based or functional assay
[3] = target: T3, SARS-CoV-2 spike protein on recombinant CHO K1 cells (SARS-CoV-2, UniProt P0DTC2 14-1273); test: FACS on CHO K1 cells
T3 construct: whole, on cells

[4] = target: T1, MERS spike protein on recombinant CHO …; test: FACS on CHO K1 cells
[5] = target: SARS-CoV spike on rVSV-deltaG-Luc pseudovirus (SARS-CoV, UniProt P59594 14-1236); test: cell-based or functional assay
[6] = target: SARS-CoV spike protein on recombinant CHO K1 cells (SARS-CoV, UniProt P59594 14-1255); test: FACS on CHO K1 cells
OC43 spike protein = target: T2, OC43 spike protein; test: ELISA

Binder | authentic virus neutralization IC50 [1] [nM] | authentic virus neutralization IC50 [2] [nM] | EC50 [3] [nM] | binding result [4] | pseudovirus neutralization IC50 [5] [nM] | EC50 [6] [nM] | EC50 (OC43 spike protein) [nM] | EC50 [4] [nM]
1E4 VHH-Fc (Fc fusion) QVLLVESGGGLVQAGGLLRLACSASGRTFTENVMGWFRQAPGKEREFVAAINWNTGSTYYSDSRKGRFTISKDNAKNTMFLQINNLKPEDTAVYYCGGTSSSYYYIGEFIPDYWGQGTQVTVSS | 0.05 | 0.2 | 0.06 | no binding | 0.06 |  |  | 
10B8 VHH-Fc (Fc fusion) QVQLVESGGGLVQPGGSLRLSCAASGITLDYYAIAWFRQAPGKEREGVSCFCSSDGDIRYADSVKGRFTISRDNAKNTVYLQMNSLKPEDTAVYYCATERVYSSTWFFHRYSELDFGSWGRGTQVTVSS | 0.04 | 0.3 | 0.19 | no binding | 0.09 | 0.14 |  | 
6A1 VHH-Fc (Fc fusion) QVQLVESGGGLVQAGGSLRLSCTASGNIFSVNVMGWHRQAPGKRRELVAALTNDGRRNYADSVKGRFTISRDNAKNTIYLEMNSLKPEDTAVYYCGTGTLESGFNSWGQGLQVTVSS |  |  | 0.14 |  |  |  | 0.08 | 0.13

Source: patent US20250382355A1 (Merck Sharp & Dohme, published 2025)
